Data taken from patent publication US20170232076A1.

How the values were obtained:
[1] = target: cation-independent mannose-6-phosphate receptor (CI-M6PR) on cells overexpressing CI-M6PR; experiment: cellular uptake assay on cells overexpressing CI-M6PR, intracellular I2S enzyme activity read-out
[2] = target: cation-independent mannose-6-phosphate receptor (CI-M6PR) on cells overexpressing CI-M6PR; experiment: cellular uptake assay on cells overexpressing CI-M6PR, intracellular Naglu activity read-out
Target sequence in this assay (P11717 41-2491): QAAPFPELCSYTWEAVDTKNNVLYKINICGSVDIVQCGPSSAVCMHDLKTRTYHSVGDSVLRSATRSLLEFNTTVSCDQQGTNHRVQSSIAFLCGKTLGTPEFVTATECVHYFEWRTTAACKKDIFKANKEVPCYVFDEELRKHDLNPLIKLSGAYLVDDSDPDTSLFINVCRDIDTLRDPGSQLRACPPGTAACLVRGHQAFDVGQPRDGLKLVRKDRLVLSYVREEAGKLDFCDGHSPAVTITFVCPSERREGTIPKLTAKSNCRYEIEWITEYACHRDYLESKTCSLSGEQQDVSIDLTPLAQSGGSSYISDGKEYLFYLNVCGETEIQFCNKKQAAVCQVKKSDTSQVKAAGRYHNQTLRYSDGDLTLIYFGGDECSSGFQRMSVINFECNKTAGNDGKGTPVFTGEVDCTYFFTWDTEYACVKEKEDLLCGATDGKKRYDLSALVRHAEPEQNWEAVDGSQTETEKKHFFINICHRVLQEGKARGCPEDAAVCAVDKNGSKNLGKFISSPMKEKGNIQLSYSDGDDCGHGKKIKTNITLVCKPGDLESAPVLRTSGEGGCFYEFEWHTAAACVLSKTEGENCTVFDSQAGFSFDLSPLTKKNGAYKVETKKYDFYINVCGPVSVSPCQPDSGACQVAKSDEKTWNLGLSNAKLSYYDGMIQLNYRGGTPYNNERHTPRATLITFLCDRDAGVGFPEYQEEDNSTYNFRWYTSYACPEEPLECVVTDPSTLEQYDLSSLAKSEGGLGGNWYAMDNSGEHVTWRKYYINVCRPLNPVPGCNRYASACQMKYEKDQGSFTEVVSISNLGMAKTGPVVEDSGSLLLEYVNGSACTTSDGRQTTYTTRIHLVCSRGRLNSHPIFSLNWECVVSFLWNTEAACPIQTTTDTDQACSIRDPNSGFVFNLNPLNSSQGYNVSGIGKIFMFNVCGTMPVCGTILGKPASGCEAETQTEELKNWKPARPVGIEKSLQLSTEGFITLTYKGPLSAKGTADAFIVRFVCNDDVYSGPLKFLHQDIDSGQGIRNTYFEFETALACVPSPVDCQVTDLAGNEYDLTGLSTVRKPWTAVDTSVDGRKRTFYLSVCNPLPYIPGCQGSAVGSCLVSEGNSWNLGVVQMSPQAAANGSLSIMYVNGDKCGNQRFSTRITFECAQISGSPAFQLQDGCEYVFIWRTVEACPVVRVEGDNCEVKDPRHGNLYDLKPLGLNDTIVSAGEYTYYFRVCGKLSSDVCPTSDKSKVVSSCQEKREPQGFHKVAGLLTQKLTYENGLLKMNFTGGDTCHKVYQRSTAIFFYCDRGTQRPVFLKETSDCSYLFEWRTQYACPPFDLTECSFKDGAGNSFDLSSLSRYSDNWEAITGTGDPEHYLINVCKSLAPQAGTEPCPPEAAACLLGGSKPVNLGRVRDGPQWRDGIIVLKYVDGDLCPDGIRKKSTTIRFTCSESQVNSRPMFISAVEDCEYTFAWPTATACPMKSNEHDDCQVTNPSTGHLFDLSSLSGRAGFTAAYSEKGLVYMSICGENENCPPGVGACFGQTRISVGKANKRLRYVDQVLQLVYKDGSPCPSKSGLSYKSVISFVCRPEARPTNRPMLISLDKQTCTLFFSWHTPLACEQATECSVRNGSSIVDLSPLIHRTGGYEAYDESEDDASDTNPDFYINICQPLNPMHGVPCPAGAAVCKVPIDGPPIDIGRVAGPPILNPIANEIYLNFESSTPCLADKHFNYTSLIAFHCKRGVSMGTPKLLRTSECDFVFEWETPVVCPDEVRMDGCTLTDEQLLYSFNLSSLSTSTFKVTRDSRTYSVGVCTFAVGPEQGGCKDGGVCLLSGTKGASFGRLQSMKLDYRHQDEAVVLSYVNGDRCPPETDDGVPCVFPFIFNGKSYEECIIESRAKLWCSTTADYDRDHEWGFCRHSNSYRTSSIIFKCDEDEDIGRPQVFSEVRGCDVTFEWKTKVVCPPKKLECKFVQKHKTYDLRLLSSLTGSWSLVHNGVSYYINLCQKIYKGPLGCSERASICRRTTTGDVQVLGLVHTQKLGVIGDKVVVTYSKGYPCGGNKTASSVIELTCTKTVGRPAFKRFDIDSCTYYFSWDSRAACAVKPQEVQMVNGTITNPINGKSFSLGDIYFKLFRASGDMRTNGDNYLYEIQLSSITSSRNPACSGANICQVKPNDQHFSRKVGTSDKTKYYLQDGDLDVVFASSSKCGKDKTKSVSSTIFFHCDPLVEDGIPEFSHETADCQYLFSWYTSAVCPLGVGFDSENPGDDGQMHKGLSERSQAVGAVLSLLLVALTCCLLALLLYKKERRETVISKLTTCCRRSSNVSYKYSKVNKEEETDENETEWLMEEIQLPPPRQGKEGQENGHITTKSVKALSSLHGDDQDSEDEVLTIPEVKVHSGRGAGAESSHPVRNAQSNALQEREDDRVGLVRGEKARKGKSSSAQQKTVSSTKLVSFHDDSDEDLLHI

Row | Kd [1] | Kd [2] | Substance
1 | 1.65 nM | – | recombinant iduronate 2-sulfatase (I2S) produced in HT-1080 cells co-overexpressing GNPT (from UniProt P22304 26-550) (enzyme)
2 | – | 178 nM | Naglu-LIF fusion protein (produced in HT-1080 cells) (enzyme)
3 | 27.9 nM | – | recombinant iduronate 2-sulfatase (I2S) produced in HT-1080 cells overexpressing I2S alone (from UniProt P22304 26-550) (enzyme)
4 | – | 15 nM | Naglu-LIF fusion protein produced in HT-1080 cells overexpressing GNPT (enzyme)
